Assay results published in patent publication US20210380703A1 (RIGEL PHARMACEUTICALS, published 2021).

Legend:
human ACVR2A = biological target: T1, human ACVR2A (human, UniProt P27037 20-135, limits assumed); assay: ELISA
T1 construct: also called activin receptor, type II A
Summary of the method: (§1)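 Binding signal was read by ELISA after ACVR2A-specific monoclonal antibodies were tested against human ACVR2A and mouse ACVR2A, with human Fc as the negative control.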

mouse ACVR2A = mouse ACVR2A (mouse, UniProt P27038 20-135, limits assumed); assay: ELISA
Summary of the method: as §1

[1] = biological target: T2, biotinylated goat anti-human kappa light chain; assay: ELISA, positive control
T2 construct: positive control of the ELISA
Summary of the method: as §1
Also: test concentration or dose not given here.

mouse ACVR2A, sequence (P27038 20-135 limits assumed): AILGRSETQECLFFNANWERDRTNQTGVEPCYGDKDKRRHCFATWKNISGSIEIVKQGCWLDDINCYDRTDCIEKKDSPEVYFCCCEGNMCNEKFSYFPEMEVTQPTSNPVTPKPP
T1 sequence (P27037 20-135 limits assumed): as the sequence (P27038 20-135 limits assumed) above, with R20K, I73V counted along it

| Binder | optical density (human ACVR2A) | optical density (mouse ACVR2A) | optical density [1] |
| --- | --- | --- | --- |
| 368_A06 (antibody, V domains shown, Group I) VH: EVQLLESGGGLVQPGGSLRLSCAASGFTFDSYSMHWVRQAPGKGLEWVAGINYNSGYKGYADSVKGRFTISRDNSKNTLYLQMNSLRAEDTAVYYCARAANWHDTHLDYWGQGTLVTVSS VL: DIQMTQSPSSLSASVGDRVTITCRASQSILSYVNWYQQKPGKAPKLLIYAATSRHSGVPSRFSGSGSGTDFTLTISSLQPEDFATYYCQQSYNSPLTFGGGTKVEIK | 2.25 OD | 2.52 OD | 3.28 OD |
| 368_A12 (antibody, V domains shown, Group I) VH: EVQLLESGGGLVQPGGSLRLSCAASGFTFDSYSMHWVRQAPGKGLEWVSSINYNSGYKGYADSVKGRFTISRDNSKNTLYLQMNSLRAEDTAVYYCARAANWHDTALDYWGQGTLVTVSS VL: DIQMTQSPSSLSASVGDRVTITCRASQSILTYLNWYQQKPGKAPKLVIYAATSRASGVPSRFSGSGSGTDFTLTISSLQPEDFATYYCQQSYDSPLTFGGGTKVEIK | 3.01 OD | 2.78 OD | 3.69 OD |
| 368_B03 (antibody, V domains shown, Group I) VH: EVQLLESGGGLVQPGGSLRLSCAASGFTFDDYGMNWVRQAPGKGLEWVSGINYNGGYTSYADSVKGRFTISRDNSKNTLYLQMNSLRAEDTAVYYCARAANWHDTALDYWGQGTLVTVSS VL: DIQMTQSPSSLSASVGDRVTITCRASQSILTYLNWYQQKPGKAPKLVIYAATSLASGVPSRFSGSGSGTDFTLTISSLQPEDFATYYCQHSYENPLTFGGGTKVEIK | 2.04 OD | 2.04 OD | 3.38 OD |
| 368_B04 (antibody, V domains shown, Group II) VH: EVQLLESGGGLVQPGGSLRLSCAASGFTFDSYGMHWVRQAPGKGLEWVSSINYNGGYTSYADSVKGRFTISRDNSKNTLYLQMNSLRAEDTAVYYCARAATWHDTHLDYWGQGTLVTVSS VL: DIQMTQSPSSLSASVGDRVTITCRASQSIVSYLNWYQQKPGKAPKLVIYAATSRASGVPSRFSGSGSGTDFTLTISSLQPEDFATYYCQQSYENPLTFGGGTKVEIK | 2.27 OD | 2.73 OD | 3.29 OD |
| 368_B08 (antibody, V domains shown, Group I) VH: EVQLLESGGGLVQPGGSLRLSCAASGFTFDSYGMNWVRQAPGKGLEWVSSINYNGGYTSYADSVKGRFTISRDNSKNTLYLQMNSLRAEDTAVYYCARAANWHDTHLDYWGQGTLVTVSS VL: DIQMTQSPSSLSASVGDRVTITCRASQSILTYVNWYQQKPGKAPKLVIYAATSRASGVPSRFSGSGSGTDFTLTISSLQPEDFATYYCQQSYENPLTFGGGTKVEIK | 1.98 OD | 2.18 OD | 3.21 OD |
| 368_B10 (antibody, V domains shown, Group I) VH: EVQLLESGGGLVQPGGSLRLSCAASGFTFDSYGMHWVRQAPGKGLEWVASINYNGGYTSYADSVKGRFTISRDNSKNTLYLQMNSLRAEDTAVYYCARAANWHDTALDYWGQGTLVTVSS VL: DIQMTQSPSSLSASVGDRVTITCRASQSILTYLNWYQQKPGKAPKLVIYAATSRASGVPSRFSGSGSGTDFTLTISSLQPEDFATYYCQQSDELPLTFGGGTKVEIK | 2.35 OD | 2.42 OD | 3.02 OD |
| 368_B11 (antibody, V domains shown, Group I) VH: EVQLLESGGGLVQPGGSLRLSCAASGFTFDSYGMHWVRQAPGKGLEWVSGINYNGGYKSYADSVKGRFTISRDNSKNTLYLQMNSLRAEDTAVYYCARAANWHDTHLDYWGQGTLVTVSS VL: DIQMTQSPSSLSASVGDRVTITCRASQSILSYLNWYQQKPGKAPKLLIYAASSLQSGVPSRFSGSGSGTDFTLTISSLQPEDFATYYCQQSYDSPLTFGGGTKVEIK | 2.14 OD | 2.35 OD | 3.61 OD |
| 368_B12 (antibody, V domains shown, Group II) VH: EVQLLESGGGLVQPGGSLRLSCAASGFTFDSYGMHWVRQAPGKGLEWVSGINYNSGYTSYADSVKGRFTISRDNSKNTLYLQMNSLRAEDTAVYYCARAATWHDTHLDYWGQGTLVTVSS VL: DIQMTQSPSSLSASVGDRVTITCRASQSIVSYVNWYQQKPGKAPKLLIYAATSRASGVPSRFSGSGSGTDFTLTISSLQPEDFATYYCQQSYDLPLTFGGGTKVEIK | 2.51 OD | 2.47 OD | 3.49 OD |
| 368_C04 (antibody, V domains shown, Group II) VH: EVQLLESGGGLVQPGGSLRLSCAASGFTFDSYGMHWVRQAPGKGLEWVSNINYNGGYTSYADSVKGRFTISRDNSKNTLYLQMNSLRAEDTAVYYCARAATWHDTHLDYWGQGTLVTVSS VL: DIQMTQSPSSLSASVGDRVTITCRASQSILSYVNWYQQKPGKAPKLLIYAATSRASGVPSRFSGSGSGTDFTLTISSLQPEDFATYYCQQSYSTPLTFGGGTKVEIK | 2.48 OD | 2.47 OD | 3.67 OD |
| 368_C07 (antibody, V domains shown, Group II) VH: EVQLLESGGGLVQPGGSLRLSCAASGFTFSSYGMHWVRQAPGKGLEWVAGINYNSGYTSYADSVKGRFTISRDNSKNTLYLQMNSLRAEDTAVYYCARAATWHDTHLDYWGQGTLVTVSS VL: DIQMTQSPSSLSASVGDRVTITCRASQSIVSYVNWYQQKPGKAPKLVIYAATSRASGVPSRFSGSGSGTDFTLTISSLQPEDFATYYCQQSYENPLTFGGGTKVEIK | 2.58 OD | 2.37 OD | 3.31 OD |
| 368_C09 (antibody, V domains shown, Group I) VH: EVQLLESGGGLVQPGGSLRLSCAASGFTFSSYSMHWVRQAPGKGLEWVSNINYNGGYTGYADSVKGRFTISRDNSKNTLYLQMNSLRAEDTAVYYCARAANWHDTHLDYWGQGTLVTVSS VL: DIQMTQSPSSLSASVGDRVTITCRASQSILTYVNWYQQKPGKAPKLLIYAATSLASGVPSRFSGSGSGTDFTLTISSLQPEDFATYYCQQSYDLPLTFGGGTKVEIK | 2.48 OD | 2.61 OD | 3.46 OD |
| 368_C12 (antibody, V domains shown, Group II) VH: EVQLLESGGGLVQPGGSLRLSCAASGFTFDSYGMHWVRQAPGKGLEWVASINYNGGYTSYADSVKGRFTISRDNSKNTLYLQMNSLRAEDTAVYYCARAATWHDTHLDYWGQGTLVTVSS VL: DIQMTQSPSSLSASVGDRVTITCRASQSILTYLNWYQQKPGKAPKLLIYAATSRASGVPSRFSGSGSGTDFTLTISSLQPEDFATYYCQQSDSNPLTFGGGTKVEIK | 2.49 OD | 2.45 OD | 3.62 OD |
| 368_D03 (antibody, V domains shown, Group II) VH: EVQLLESGGGLVQPGGSLRLSCAASGFTFSDYSMHWVRQAPGKGLEWVASINYNGGYTSYADSVKGRFTISRDNSKNTLYLQMNSLRAEDTAVYYCARAATWHDTHLDYWGQGTLVTVSS VL: DIQMTQSPSSLSASVGDRVTITCRASQSIITYVNWYQQKPGKAPKLLIYATTSRASGVPSRFSGSGSGTDFTLTISSLQPEDFATYYCQQSYDLPLTFGGGTKVEIK | 2.39 OD | 2.55 OD | 3.49 OD |
| 368_D06 (antibody, V domains shown, Group II) VH: EVQLLESGGGLVQPGGSLRLSCAASGFTFSSYGMNWVRQAPGKGLEWVSNINYNGGYTGYADSVKGRFTISRDNSKNTLYLQMNSLRAEDTAVYYCARAATWHDTHLDYWGQGTLVTVSS VL: DIQMTQSPSSLSASVGDRVTITCRASQSILSYVNWYQQKPGKAPKLVIYAATSRHSGVPSRFSGSGSGTDFTLTISSLQPEDFATYYCQQSYENPLTFGGGTKVEIK | 2.03 OD | 2.11 OD | 3.41 OD |
| 368_D07 (antibody, V domains shown, Group II) VH: EVQLLESGGGLVQPGGSLRLSCAASGFTFDSYGMHWVRQAPGKGLEWVASINYNGGYTGYADSVKGRFTISRDNSKNTLYLQMNSLRAEDTAVYYCARAATWHDTHLDYWGQGTLVTVSS VL: not shown | 2.2 OD | 2.46 OD | 3.26 OD |
| 368_D09 (antibody, V domains shown, Group I) VH: EVQLLESGGGLVQPGGSLRLSCAASGFTFDSYGMHWVRQAPGKGLEWVAGINYNSGYKSYADSVKGRFTISRDNSKNTLYLQMNSLRAEDTAVYYCARAANWHDTHLDYWGQGTLVTVSS VL: DIQMTQSPSSLSASVGDRVTITCRASQSIVSYVNWYQQKPGKAPKLLIYAATSLASGVPSRFSGSGSGTDFTLTISSLQPEDFATYYCQQSYDNPLTFGGGTKVEIK | 2.19 OD | 2.11 OD | 3.46 OD |
| 368_E05 (antibody, V domains shown, Group II) VH: EVQLLESGGGLVQPGGSLRLSCAASGFTFDSYSMHWVRQAPGKGLEWVSSINYNGGYKSYADSVKGRFTISRDNSKNTLYLQMNSLRAEDTAVYYCARAATWHDTHLDYWGQGTLVTVSS VL: DIQMTQSPSSLSASVGDRVTITCRASQSILSYLNWYQQKPGKAPKLVIYAATSRASGVPSRFSGSGSGTDFTLTISSLQPEDFATYYCQQSYSSPLTFGGGTKVEIK | 1.87 OD | 2.07 OD | 3.37 OD |
| 368_E08 (antibody, V domains shown, Group II) VH: EVQLLESGGGLVQPGGSLRLSCAASGFTFDSYGMHWVRQAPGKGLEWVANINYNSGYTGYADSVKGRFTISRDNSKNTLYLQMNSLRAEDTAVYYCARAATWHDTHLDYWGQGTLVTVSS VL: DIQMTQSPSSLSASVGDRVTITCRASQSILSYVNWYQQKPGKAPKLVIYAATSLHSGVPSRFSGSGSGTDFTLTISSLQPEDFATYYCQQSYETPLTFGGGTKVEIK | 2.27 OD | 2.67 OD | 3.5 OD |
| 368_F02 (antibody, V domains shown, Group I) VH: EVQLLESGGGLVQPGGSLRLSCAASGFTFSSYGMNWVRQAPGKGLEWVASINYNSGYTSYADSVKGRFTISRDNSKNTLYLQMNSLRAEDTAVYYCARAANWHDTHLDYWGQGTLVTVSS VL: not shown | 2.18 OD | 2.27 OD | 3.65 OD |
